From US20220298257A1 (ELPIS BIOPHARMACEUTICALS, published 2022)
Numbering of substitutions follows the chain as printed.

B1: EP97-B03 (IgG) (antibody, V domains shown)
VH: QLVQSGAEVKKPGASVKVSCKASGYTFSSYGITWVRQAPGQGLEWMGWISAYNGNTNYAQKFQGRVTLTTDTSTSIAYMELRSLTSDDTAVYYCATGGQEDYWGQGTLVTVSS
VL: not shown
B2: EP160-D02 (IgG) (antibody, V domains shown)
VH: QVQLVQSGAEVKKPGASVKVSCKASGYTFTSYGISWVRQAPGQGLEWMGWISAYNGNTNYAQKLQGRVTMTTDTSTSTAYMELRSLRSDDTAVYYCARDPLEPLESDYWGQGTLVTVSS
VL: EIVMTQSPATLSVSPGEGVTLSCRASQSVSSNLAWYQQRPGQAPRLLIYGASIKATDVPDRFSGGGSGTDFSLSITNLQSEDFAVYYCQQYHTWPPVTFGGGTKVEIK
notes: also called EP160-D2 (IgG)
B3: EP160-H02 (IgG) (antibody, V domains shown)
VH: QVQLVQSGAEVKKPGASVKVSCKASGYTFTSYGISWVRQAPGQGLEWMGGIIAYNGNTNYAQKLQGRVTMTTDTSTSTAYMELRSLRSDDTAVYYCARDPPEYSSSAGTDYWGQGTLVTVSS
VL: B2 VL with S72T, P95S
B4: M971 IgG antibody (antibody, V domains shown)
VH: QVQLQQSGPGLVKPSQTLSLTCAISGDSVSSNSAAWNWIRQSPSRGLEWLGRTYYRSWYNDYAVSVKSRITINPDTSKNQFSLQLNSVTPEDTAVYYCAREVTGDLEDAFDIWGQGTMVTVSS
VL: DIQMTQSPSSLSASVGDRVTITCRASQTIWSYLNWYQQRPGKAPNLLIYAASSLQSGVPSRFSGRGSGTDFTLTISSLQAEDFATYYCQQSYSIPQTFGQGTKLEIK
notes: Known fully human anti-CD22 antibody used as IgG; also called IgG M971
B5: EP160-D02 scFv (scFv)
scFv: QVQLVQSGAEVKKPGASVKVSCKASGYTFTSYGISWVRQAPGQGLEWMGWISAYNGNTNYAQKLQGRVTMTTDTSTSTAYMELRSLRSDDTAVYYCARDPLEPLESDYWGQGTLVTVSSGGGGSGGGGSGGGGSEIVMTQSPATLSVSPGEGVTLSCRASQSVSSNLAWYQQRPGQAPRLLIYGASIKATDVPDRFSGGGSGTDFSLSITNLQSEDFAVYYCQQYHTWPPVTFGGGTKVEIK
notes: VH-VL orientation; made in E. coli, His-tag purified; also called EP160-D2; not shown: C-terminal flag and 6xHIS tag
B6: EP160-F10 (a single domain antibody) (VHH)
VHH: EVQLVESGGGVVQPGRSLRLSCVASGFTFRNYGMQWVRQTPDKGLEWVAVTAHDGTVQYYVDSVKGRFTISRDNSKDTLYLQMNSLRVADTAVYYCAKEATPRAADHFDYWGQGTLGTVSS
notes: Human VH-only single domain antibody from a human library (not a camelid VHH); not shown: C-terminal flag and 6xHIS tag
B7: EP97-A10 scFv (scFv)
scFv: QVQLVQSGAEVKRPGASVKVSCKASGYTFTSYGISWVRQAPGQGLEWMGWISAYNGNTNYAQKLQGRVTMTTDTSTSTAYMELRSLRSDDTAVYYCARDPGIAVAGTVDYWGQGTLVTVSSGGGGSGGGGSGGGGSEIVMTQSPATLSVSPGEGVTLSCRASQSVSSNLAWYQQRPGQAPRLLIYGASIKATDVPDRFSGGGSGTDFTLSISNVQSEDFAVYYCQQYHTWTPVTFGGGTKVEIK
notes: VH-VL orientation; not shown: C-terminal flag and 6xHIS tag
B8: EP160-G04 scFv (scFv)
scFv: QVQLVQSGAEVKKPGASVKVSCKASGYTFSSYGITWVRQAPGQGLEWMGWISAYNGNTNYAQKFQGRVTLTTDTSTSIAYMELRSLTSDDTAVYYCATGGQEDYWGQGTLVTVSSGGGGSGGGGSGGGGSEIVMTQSPATLSVSPGERATLSCRASQSVSSNLAWYQQKPGQAPRLLIYDASTRATGIPARFSGSGSGTEFTLTISSLQSEDFAVYYCQQYHNWAPLTFGGGTKVGIK
notes: as for B7
B9: EP160-F04 scFv (scFv)
scFv: EVQLVQSGAEVKKPGASVKVSCKASGYTFTSYGISWVRQAPGQGLEWMGWISAYNGNTNYAQKLQGRVTMTTDTSTSTAYMELRSLKSDDTAVYYCAISIGAFDIWGQGTMVTVSSGGGGSGGGGSGGGGSEIVMTQSPATLSVSPGEEVTLSCRASQSVSSNLAWYQQRPGQAPRLLIYGASIKATDVPDRFSGGGSGTDFTLSISNLQSEDFAVYYCQQYHTWPPVTFGGGTKVEIK
notes: as for B7

Experiments:
[1] = molecular target: T1, full-length human CD22 fused with flag and Myc tags at the C-terminus, on HEK293 or K562 cells (human, UniProt P20273 20-847); test: cell-based or functional assay
T1 sequence (looked up): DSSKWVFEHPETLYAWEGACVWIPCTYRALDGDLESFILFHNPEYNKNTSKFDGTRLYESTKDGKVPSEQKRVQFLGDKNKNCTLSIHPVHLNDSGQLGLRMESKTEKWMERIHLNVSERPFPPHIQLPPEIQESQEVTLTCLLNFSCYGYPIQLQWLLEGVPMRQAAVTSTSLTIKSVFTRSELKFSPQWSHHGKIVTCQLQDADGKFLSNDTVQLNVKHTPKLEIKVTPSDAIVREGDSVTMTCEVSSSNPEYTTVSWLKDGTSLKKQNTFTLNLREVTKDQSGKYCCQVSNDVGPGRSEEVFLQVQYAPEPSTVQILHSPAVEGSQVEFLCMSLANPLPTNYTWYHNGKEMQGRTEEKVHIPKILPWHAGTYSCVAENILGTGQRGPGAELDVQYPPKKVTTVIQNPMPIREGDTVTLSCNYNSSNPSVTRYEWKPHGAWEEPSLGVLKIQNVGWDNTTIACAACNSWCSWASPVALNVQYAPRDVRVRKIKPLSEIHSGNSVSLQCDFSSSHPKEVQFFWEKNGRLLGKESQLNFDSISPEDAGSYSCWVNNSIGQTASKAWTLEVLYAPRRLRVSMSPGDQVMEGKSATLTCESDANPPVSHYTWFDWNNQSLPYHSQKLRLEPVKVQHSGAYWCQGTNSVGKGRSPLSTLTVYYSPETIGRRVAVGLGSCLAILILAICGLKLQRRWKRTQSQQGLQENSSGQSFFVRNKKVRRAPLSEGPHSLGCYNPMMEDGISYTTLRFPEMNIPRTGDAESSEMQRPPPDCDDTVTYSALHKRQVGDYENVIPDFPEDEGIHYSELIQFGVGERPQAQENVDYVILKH

[2] = molecular target: T1, full-length human CD22 fused with flag …; test: cell-based or functional assay; remark: listed apart in the source
[3] = molecular target: T2, CD123 on the surface of CHO-K1 cells (UniProt P26951 19-378); test: FACS on CHO-K1 cells expressing CD123, anti-hFc Alexa 488
T2 construct: whole, on cells; Negative control cells that express CD123 but not CD22; also called CHOK1-CD123; cell surface CD123

[4] = molecular target: T1, full-length human CD22 fused with flag …; test: FACS on CD22-expressing cells (HEK293-CD22 by the table's head), anti-hFc Alexa 488
[5] = molecular target: T1, full-length human CD22 fused with flag …; test: ELISA, IgG format; antigen format not described
[6] = molecular target: T1, full-length human CD22 fused with flag …; test: FACS, scFv titrated on CD22-expressing cells, anti-His Alexa 488
[7] = molecular target: T1, full-length human CD22 fused with flag …; test: FACS on CD22 K562 cells, scFv alone (BL22 binning experiment)
[8] = molecular target: T1, full-length human CD22 fused with flag …; test: FACS on CD22 K562 cells, competitor 0.175 nM BL22
[9] = molecular target: T3, human CD22-Fc fusion protein (human, UniProt P20273 20-687, limits assumed); test: SPR Biacore T200; CD22-Fc captured on Protein G chip, scFv as analyte;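 further: run in 1×HBST buffer, with the response of reference flow cell 1 subtracted from the CD22 capture cell and kinetics fitted in Biacore T200 evaluation software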
T3 construct: also called recombinant CD22-Fc fusion protein; not shown: Fc part
T3 sequence (looked up): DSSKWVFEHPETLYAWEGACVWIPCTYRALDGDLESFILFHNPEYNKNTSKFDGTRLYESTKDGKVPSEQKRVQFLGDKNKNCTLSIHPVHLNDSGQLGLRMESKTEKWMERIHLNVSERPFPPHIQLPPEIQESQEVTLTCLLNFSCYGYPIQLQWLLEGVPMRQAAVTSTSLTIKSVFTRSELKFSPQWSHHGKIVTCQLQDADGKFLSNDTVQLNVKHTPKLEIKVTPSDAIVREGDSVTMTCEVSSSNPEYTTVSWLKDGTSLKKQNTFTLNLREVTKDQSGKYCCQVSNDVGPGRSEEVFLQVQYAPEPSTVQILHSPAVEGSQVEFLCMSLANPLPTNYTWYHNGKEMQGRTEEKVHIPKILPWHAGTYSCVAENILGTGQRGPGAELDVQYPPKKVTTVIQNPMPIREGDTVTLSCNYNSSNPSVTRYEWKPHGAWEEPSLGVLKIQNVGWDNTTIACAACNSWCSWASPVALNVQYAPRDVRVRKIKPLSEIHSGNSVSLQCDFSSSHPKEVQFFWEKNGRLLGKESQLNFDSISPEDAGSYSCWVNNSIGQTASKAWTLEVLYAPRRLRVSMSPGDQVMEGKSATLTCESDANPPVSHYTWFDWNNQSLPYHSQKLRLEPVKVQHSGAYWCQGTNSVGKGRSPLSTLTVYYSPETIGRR

[10] = molecular target: T1, full-length human CD22 fused with flag …; test: FACS on CD22 K562 cells, scFv alone (M971 binning experiment)
[11] = molecular target: T1, full-length human CD22 fused with flag …; test: FACS on CD22 K562 cells, competitor 0.77 nM BL22
[12] = molecular target: T1, full-length human CD22 fused with flag …; test: FACS on CD22 K562 cells, competitor 5.13 nM M971
[13] = molecular target: T1, full-length human CD22 fused with flag …; test: FACS on CD22 K562 cells, competitor 1.77 nM M971
[14] = molecular target: T1, full-length human CD22 fused with flag …; test: FACS, antibody fragment titrated on CD22-expressing cells, anti-His Alexa 488

T2 sequence (P26951 19-378 limits assumed): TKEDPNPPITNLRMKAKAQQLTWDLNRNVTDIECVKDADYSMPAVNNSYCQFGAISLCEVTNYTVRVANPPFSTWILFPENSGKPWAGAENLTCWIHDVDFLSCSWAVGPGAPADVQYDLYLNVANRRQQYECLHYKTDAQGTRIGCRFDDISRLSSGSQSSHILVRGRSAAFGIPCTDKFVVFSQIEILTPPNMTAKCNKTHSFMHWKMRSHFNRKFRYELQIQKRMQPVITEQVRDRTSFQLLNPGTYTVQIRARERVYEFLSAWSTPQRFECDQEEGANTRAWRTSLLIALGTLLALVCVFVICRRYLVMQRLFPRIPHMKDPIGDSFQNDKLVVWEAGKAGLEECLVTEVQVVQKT

| Binder | EC50 in ADCC assay (Promega ADCC Bioreporter, CD22/HEK293 target cells) [1] [pM] | T½ (Hour) of internalization, CD22/HEK293 cells, pHrodo secondary [2] [Hour] | EC50 [6] [pM] | Kd [9] [pM] | koff [9] [s⁻¹] | kon [9] [M⁻¹ s⁻¹] | other results |
| --- | --- | --- | --- | --- | --- | --- | --- |
| B1 | 3710 | 5.26 | – | – | – | – | – |
| B2 | 1950 | 5.06 | – | – | – | – | binding result [3]: no binding; EC50 [4]: 101 pM; EC50 [5]: 39 pM |
| B3 | ~73800 | – | – | – | – | – | – |
| B4 | – | 6.07 | – | – | – | – | EC50 [5]: 59 pM |
| B5 | – | – | 240 | 19.4 | 0.000107 | 5.51e+06 | IC50 [7]: 82.2 pM; IC50 [8]: 81.1 pM; EC50 [10]: 125 pM; IC50 [11]: 89.8 pM; EC50 [12]: 144 pM; EC50 [13]: 94.6 pM |
| B6 | – | – | – | – | – | – | EC50 [14]: 9000 pM |
| B7 | – | – | 1000 | 3570 | 0.000145 | 40500 | – |
| B8 | – | – | 1100 | 322 | 4.03e-05 | 125000 | – |
| B9 | – | – | 2790 | 5890 | 0.000283 | 40500 | – |
